{
  "source": "patent US20190376046",
  "key": {"[1]": {"target": "Glyceraldehyde-3-phosphate dehydrogenase (encoded by GAPDH) (UniProt P04406)", "sequence (P04406 2-335)": "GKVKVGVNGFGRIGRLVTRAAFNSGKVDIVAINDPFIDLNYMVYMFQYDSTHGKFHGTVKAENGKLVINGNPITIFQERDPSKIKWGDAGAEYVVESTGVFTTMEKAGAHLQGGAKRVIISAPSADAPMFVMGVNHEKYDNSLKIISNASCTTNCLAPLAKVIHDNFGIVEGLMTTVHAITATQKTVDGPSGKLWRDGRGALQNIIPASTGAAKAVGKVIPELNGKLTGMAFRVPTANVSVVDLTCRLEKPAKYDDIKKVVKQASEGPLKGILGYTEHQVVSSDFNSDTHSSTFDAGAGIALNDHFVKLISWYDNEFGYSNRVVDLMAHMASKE"}, "[2]": {"target": "Alpha-enolase (encoded by ENO1) (UniProt P06733)", "sequence (P06733 2-434)": "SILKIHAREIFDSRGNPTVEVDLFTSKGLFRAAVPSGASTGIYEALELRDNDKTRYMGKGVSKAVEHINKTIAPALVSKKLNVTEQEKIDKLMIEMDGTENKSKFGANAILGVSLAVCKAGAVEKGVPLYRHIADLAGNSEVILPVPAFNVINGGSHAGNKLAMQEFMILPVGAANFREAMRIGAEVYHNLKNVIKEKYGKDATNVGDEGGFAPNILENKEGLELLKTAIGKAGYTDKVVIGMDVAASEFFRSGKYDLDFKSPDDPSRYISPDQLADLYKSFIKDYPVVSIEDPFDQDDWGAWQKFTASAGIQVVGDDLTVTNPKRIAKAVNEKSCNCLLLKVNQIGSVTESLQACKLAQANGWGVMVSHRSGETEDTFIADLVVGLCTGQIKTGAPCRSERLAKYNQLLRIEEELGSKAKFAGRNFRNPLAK"}, "[3]": {"target": "T1, Phosphoglycerate kinase 1 (encoded by PGK1) (UniProt P00558)", "T1 sequence": "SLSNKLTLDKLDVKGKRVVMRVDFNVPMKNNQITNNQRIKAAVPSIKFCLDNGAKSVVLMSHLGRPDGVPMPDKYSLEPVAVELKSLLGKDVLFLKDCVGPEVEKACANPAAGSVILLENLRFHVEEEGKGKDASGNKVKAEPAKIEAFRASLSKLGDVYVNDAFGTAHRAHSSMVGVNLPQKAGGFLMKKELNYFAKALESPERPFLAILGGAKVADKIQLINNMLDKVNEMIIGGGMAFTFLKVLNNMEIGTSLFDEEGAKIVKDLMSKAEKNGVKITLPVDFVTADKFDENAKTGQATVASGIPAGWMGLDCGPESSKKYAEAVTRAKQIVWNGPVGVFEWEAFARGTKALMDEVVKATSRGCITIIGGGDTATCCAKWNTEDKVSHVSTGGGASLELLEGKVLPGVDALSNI"}, "[4]": {"target": "T2, Fructose-bisphosphate aldolase A (encoded by ALDOA) (UniProt P04075)", "T2 sequence": "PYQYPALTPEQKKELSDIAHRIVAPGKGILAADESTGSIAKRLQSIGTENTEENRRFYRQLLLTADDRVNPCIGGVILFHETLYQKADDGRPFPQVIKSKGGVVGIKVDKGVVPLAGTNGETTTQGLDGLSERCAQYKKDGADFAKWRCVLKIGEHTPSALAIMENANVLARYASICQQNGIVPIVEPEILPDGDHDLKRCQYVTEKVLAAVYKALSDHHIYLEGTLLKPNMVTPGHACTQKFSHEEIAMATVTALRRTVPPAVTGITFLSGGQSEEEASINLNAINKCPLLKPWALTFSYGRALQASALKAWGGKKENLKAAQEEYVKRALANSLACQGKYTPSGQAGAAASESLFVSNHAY"}},
  "data": [
    {"substance": "Sirtuin 2 (SIRT2), human", "values": [
      {"measurement": "acetylation level (IP with specific antibody, western blot with anti-acetyl-Lys, and the reverse)", "setting": "[1]", "value": "forced expression of SIRT2 in hESCs prominently deacetylated all four enzymes tested (aldolase, PGK1, enolase, and GAPDH)"},
      {"measurement": "acetylation level after SIRT2 knockdown in hDFs (IP, western blot with anti-acetyl-Lys)", "setting": "[1]", "value": "Acetylation levels of aldolase, enolase, PGK1 and GAPDH were substantially increased in SIRT2 KD fibroblasts"},
      {"measurement": "acetylation level (IP with specific antibody, western blot with anti-acetyl-Lys, and the reverse)", "setting": "[2]", "value": "forced expression of SIRT2 in hESCs prominently deacetylated all four enzymes tested (aldolase, PGK1, enolase, and GAPDH)"},
      {"measurement": "acetylation level after SIRT2 knockdown in hDFs (IP, western blot with anti-acetyl-Lys)", "setting": "[2]", "value": "Acetylation levels of aldolase, enolase, PGK1 and GAPDH were substantially increased in SIRT2 KD fibroblasts"},
      {"measurement": "acetylation level (IP with specific antibody, western blot with anti-acetyl-Lys, and the reverse)", "setting": "[3]", "value": "forced expression of SIRT2 in hESCs prominently deacetylated all four enzymes tested (aldolase, PGK1, enolase, and GAPDH)"},
      {"measurement": "acetylation level after SIRT2 knockdown in hDFs (IP, western blot with anti-acetyl-Lys)", "setting": "[3]", "value": "Acetylation levels of aldolase, enolase, PGK1 and GAPDH were substantially increased in SIRT2 KD fibroblasts"},
      {"measurement": "acetylation level (IP with specific antibody, western blot with anti-acetyl-Lys, and the reverse)", "setting": "[4]", "value": "forced expression of SIRT2 in hESCs prominently deacetylated all four enzymes tested (aldolase, PGK1, enolase, and GAPDH)"},
      {"measurement": "acetylation level after SIRT2 knockdown in hDFs (IP, western blot with anti-acetyl-Lys)", "setting": "[4]", "value": "Acetylation levels of aldolase, enolase, PGK1 and GAPDH were substantially increased in SIRT2 KD fibroblasts"}
    ]}
  ]
}
